Key:
Akt = test: IGF-I mediated Akt phosphorylation, western blot; format: cell-based, human; conditions: MCF7 cells; IGF-I stimulated; A12 even at 10 nM
Method: To visualize the inhibitory effect of the anti-IGF-IR antibodies on IGF-I signaling, receptor auto-phosphorylation and downstream effector molecule phosphorylation analysis was performed in the presence or absence of antibody A12 or 2F8. The MCF7 human breast cancer cell line was selected for use due to its high IGF-IR density. Cells were plated into 10 cm or 6 well culture dishes and grown to 70-80% confluence. The monolayers were then washed twice in PBS and cultured overnight in serum free defined medium. Anti-IGF-IR antibody was then added in fresh serum-free media (100 nM-10 nM) and incubated cells 30 minutes before addition of ligand (10 nM). Cells were incubated with ligand for 10 minutes, then placed on ice and washed with ice-cold PBS. […] Tyrosine phosphorylated protein was detected on the blot using an anti-p-tyrosine antibody (Cell Signaling #9411) and an anti-mouse-HRP secondary antibody. IGF-IR was detected with monoclonal antibody C-20 (Santa Cruz). For Akt phosphorylation, phospho-Akt was detected with antibody #559029 and total Akt with #559028 (BD Pharmingen). For MAPK phosphorylation, phospho-p44/42 was detected with #9101 and total p44/42 with #9102 (Cell Signaling Tech.). […]

IGF-IR [1] = biological target: T1, IGF-IR (Homo sapiens, UniProt P08069); test: Blocking of 125I-IGF-I binding to immobilized soluble IGF-IR; parameters: recombinant extracellular portion of human IGF-IR was used to screen
Method: Forty 40 pM of ^125I-IGF-I was then added and the plates incubated an additional 90 minutes. […] Affinity was determined by BIAcore analysis according to manufacturer's specifications (Pharmacia BIACORE 3000). Soluble IGF-IR was immobilized on the sensor chips and antibody binding kinetics determined. […] The activity of A12 remained the same, irrespective of whether the light chain was engineered with a human lambda or kappa class constant region. Antibody A12 engineered with a lambda class light chain was utilized in all subsequent procedures.

IGF-IR [2] = biological target: T1, IGF-IR; test: Human IGF-IR binding ELISA; parameters: recombinant extracellular portion of human IGF-IR was used to screen; conditions: full IgG; 50% binding relative to saturation; read-out: Binding (ED50)
Method: Binding results were determined by human IGF-IR ELISA and represent the concentration of titered antibody necessary to achieve 50% binding relative to saturation. Blocking results represent the level of antibody necessary to inhibit 50% binding of ^125I-IGF-I ligand to immobilized human IGF-IR. Affinity was determined by BIAcore analysis according to manufacturer's specifications (Pharmacia BIACORE 3000). Soluble IGF-IR was immobilized on the sensor chips and antibody binding kinetics determined.

IGF-IR [3] = biological target: T1, IGF-IR; test: FACs binding analysis to human cell lines; format: cell-based; parameters: endogenous in cells; HT-29; BxPC-3; HEL; conditions: 0.5 μg A12
Method: Since A12 was capable of immunoprecipitating endogenous IGF-IR, we were therefore interested in determining if A12 could also be used as detection antibody for fluorescence activated cell sorting (FACs). Human tumor cell lines were grown in culture, scraped into ice-cold PBS, and counted. Primary antibody, A12 (0.5 μg), was added to approximately 5 million cells in 250 μl PBS/5% FBS and incubated on ice for 1 hour. The cells were then diluted to 3 mls in PBS/5% FBS, pelleted, and the supernatant aspirated. Secondary phycoerythin (PE)-labeled goat anti-human IgG F(ab)2 fragment was then added in 250 μl PBS/5% FBS at 1:200 and incubated on ice for 60 minutes. Afterwards, the cells were again diluted and pelleted, as before, then resuspended in 500 μl PBS/5% FBS. FACs analysis was then performed on a Epics XL unit (Coulter). […] IGF-IR negative mouse embryo fibroblasts (R-cells) (obtained from R. Baserga, Thomas Jefferson University, Philadelphia, Pa.) served as the negative control.

insulin receptor (IR) = biological target: T2, insulin receptor (IR) (Homo sapiens, UniProt P06213); test: Blocking of radiolabeled insulin binding to ZR-75I cells; conditions: ZR-75I breast cancer cells; antibody up to 200 nM
T2 construct: endogenous in cells; host or cells: ZR-75I human breast cancer cells

MCF7 human breast cancer = test: MCF7 xenograft, A12 monotherapy; format: in vivo, nude mice
Method: In order to assess its activity on MCF7 tumor growth in vivo, a mouse xenograft tumor model was utilized. MCF7 cells were originally isolated from an estrogen-dependent human tumor and require exogenously added estrogen for maintenance and growth in vivo. Nude mice were implanted with biodegradable estrogen pellets (0.72 mg 17-β-estradiol/pellet, 60 day release). In addition, at the time of subcutaneous tumor cell injection, the mice were also injected in the right flank subcutaneously with 0.5 mg of estradiol in a 50 μl suspension of sesame seed oil. Tumors were allowed to establish a size of approximately 150 mm^3 before antibody treatment was initiated. Antibody was injected at 1 mg, 100 μg, and 10 μg doses every three days and continued for the duration of the experiment. At 29 days, treatment of animals with 1 mg of A12 effected an 89% reduction in tumor growth (FIG. 25). Minimal growth was apparent for the established tumors in this treatment group.

[4] = biological target: T3, IGF-IR in HT-29 cells and BxPC-3 cells (Homo sapiens, UniProt P08069); test: Total cellular IGF-IR after treatment; format: cell-based; conditions: HT-29 and BxPC-3 cells; A12 after 3-6 hours
T3 construct: endogenous in cells; HT-29; BxPC-3; HEL

increase in blocking activity of ligand for immobilized receptor, A12 versus 2F8 (IGF-IR [1]; full IgG): at least a three-fold increase
EC50 (IGF-IR [2]): 0.3 nM
FACs shift (IGF-IR [3]; HEL human leukemia cell line): fully shifted
FACs shift (IGF-IR [3]; MCF7 human breast cancer cell line): fully shifted
effect on total cellular IGF-IR [4]: severe depletion of IGF-IR levels
Substance: A12: fully human IgG1 anti-IGF-IR antibody, lambda light chain; VH SEQ ID NO:2, VL SEQ ID NO:10; affinity matured from 2F8
inhibition of Akt phosphorylation (Akt): significantly inhibited Akt phosphorylation
inhibition of radiolabeled IGF-I binding compared with cold ligand (IGF-IR [1]; FIG. 15): to a greater extent than competition with cold ligand
blocking of insulin binding (insulin receptor (IR)): neither 2F8 nor the high affinity A12 antibody blocked insulin binding
reduction in tumor growth (MCF7 human breast cancer; 1 mg every three days, at 29 days): 89%
tumor regression (MCF7 human breast cancer; antibody alone 1 mg/dose, continued to termination (50 days)): tumor regression was observed

From patent publication US7968093B2, “Fully human antibodies directed against the human insulin-like growth factor-1 receptor” (ImClone LLC, priority 2003, dated 2011)
